Reference: the supplement of paper PMC9170038

Test system: MS2 coat protein
Experiment: apparent KD of MS2 coat protein; designed switch direction (-1 OFF switch, 1 ON switch): -1; higher = weaker reporter binding
In short: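 Apparent KD, taken as the median over clusters for each design, was obtained by curve-fitting normalised cluster fluorescence. Designed RNA switches had been transcribed on Illumina chips by stalled E. coli RNA polymerase and titrated with SNAP-549-labelled MS2 coat protein, doubling from 0.7 or 1.5 nM to 3 µM.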

[1] = Eterna round: R95, input ligand: microRNA oligo, concentration not stated
[2] = input ligand: microRNA oligo, concentration not stated
[3] = Eterna round: R95, input ligand: FMN 200 uM
[4] = Eterna round: R95, input ligand: none

Row | Sequence | apparent KD of MS2 coat protein (input ligand: FMN 200 uM) | apparent KD of MS2 coat protein (input ligand: none) | apparent KD of MS2 coat protein [1] | apparent KD of MS2 coat protein [2] | apparent KD of MS2 coat protein [3] | apparent KD of MS2 coat protein [4]
1 | CUGUACUGAGGAUAUACAUGAGGAUCACCCAUGUGCUUCAGCUAGGAAACUAGCAAAGGUAGAAGGCAGUACAG [Mat - Exclusion 3 - Eli Mod - D58] (Eterna round: R97, puzzle: Exclusion 3) | 0.109 µM | 0.0145 µM | – | – | – | –
2 | GACUAGGCAGGAUAUACAUGAGGAUCACCCAUGUGUCUGCGAUAGGCACGUGAUUACUGUAGAAGGGCCUUGAC [Exclusion 3 - mod of a parushev design] (puzzle: Exclusion 3) | – | – | 0.204 µM | – | – | –
3 | UCGGCGCGAGGAUAUACGGUUGCUUUUUAGGGUCGUGGCGUACAUGAGGAUCACCCAUGUAGAAGGCGCGCCGC [Apr-15 SS2-30] (puzzle: Exclusion 2) | – | – | 0.0138 µM | – | – | –
4 | GCCGAAAAUGUGAGGAUAUACCUAUGGAUACAUAGGUAGAAGGCACAUGAGGAUCACCCAUGUCCAAUAACGGC [Eli bmx4 4.25] (Eterna round: R97, puzzle: Brourd's mod of Exclusion 4) | 0.528 µM | 0.223 µM | – | – | – | –
5 | GCGCCAUCGUGAGAUGGCGUACCAACAUGAGGAUCACCCAUGUAGGAUAUCGAUUGCUUUGCAGUCGAGAAGGGCAUGAUAAGU [JL ENG3 3.76] (Eterna round: R96, puzzle: Exclusion NG 3) | – | – | – | 0.0172 µM | – | –
6 | GUUGGUAAGUCAGGAUAUCCCUGUAAUGGCAGCGGAGAAGGGACAUGAGGAUCACCCAUGUGAACCUCCGGCGGGUAAACCCGC [Issoange] (Eterna round: R96, puzzle: Exclusion NG 1) | 0.103 µM | 0.0371 µM | – | 0.0205 µM | – | –
7 | CGUGCGUAUGUGAGGAUAUGCUGGUCCUUGGAUCAGCAGAAGGCACAUGAGGAUCACCCAUGUGGUGUCGUACA [salish99_Bmod_Ex4_016] (puzzle: Brourd's mod of Exclusion 4) | – | – | 0.198 µM | – | – | –
8 | AUAAUGUGAGGAUAUCGAGACUACUGCUGCGGCAGUAGUCUCGAGAAGGCACAUGAGGAUCACCCAUGUGAUCA [E4/2-A3] (Eterna round: R97, puzzle: Exclusion 4) | 0.0897 µM | 1.59 µM | – | – | – | –
9 | CUUUUGUGAGGAUAUCAGUAGUAAAUAAAUAAAAUUACUACUGAGAAGGCACAUGAGGAUCACCCAUGUUCCUC [salish99_ex4_r3_015] (puzzle: Exclusion 4) | – | – | 0.0374 µM | – | – | –
10 | GAUUUUCAUGUAGGAUAUUCCACACAACAACUGGGAGAAGGACAUGAGGAUCACCCAUGUCCUACAACAACUUCAACAAACACA [Weak Sauce] (Eterna round: R96, puzzle: Exclusion NG 1) | 0.0158 µM | 0.0114 µM | – | 0.00975 µM | – | –
11 | UAAUACAAGCAAAGAUCCUACAUGAGGAUCACCCAUGUGCUCGUCUUGUAAAGUACUAUCACGAAAGUGAUAGUACA [Mat - Sensor v3 - turn-off var 1 - Eli Mod - D77] (puzzle: Sensor v3, turn-off variant 1) | – | – | 0.0171 µM | – | 0.0412 µM | 0.114 µM
12 | UUCAGACAUGAGGAUCACCCAUGUGAGGAUAUGAUGCGAUCGUCGAAAGACGAUAGCAUCAGAAGGCACAAAUG [Fiskers Ex 1 - 18] (puzzle: Exclusion 1) | – | – | 0.114 µM | – | – | –
13 | CAGUACAGAGGAUAUACAUGAGGAUCACCCAUGUGUUUCAGCUAGGAGACUAGCGAAAGUAGAAGGCUGUACUU [salish99_ex3_r4_002] (Eterna round: R97, puzzle: Exclusion 3) | 0.023 µM | 0.0113 µM | – | – | – | –
14 | UUAGAUAGGUCAGGAUAUCGAUGAUUGAAUAGUAUGAUUUACAUGAGGAUCACCCAUGUUAAAUACGAGAAGGGACGUUAGAUU [JR_ExcNG2_Sub021] (Eterna round: R96, puzzle: Exclusion NG 2) | 0.0179 µM | 0.0213 µM | – | 0.0179 µM | – | –
15 | UAUUAGCAAGCGAGAUCCCACAUGAGGAUCACCCAUGUAGCUCGUCUUAUAAAGGUUUCGACGAAAACGUCGAGACC [Eli 91 v27] (Eterna round: R97, puzzle: Sensor, turn-off variant 1) | 0.0175 µM | 0.0161 µM | – | – | – | –
16 | ACUUAUUGAGGAUAUACAUUAAAUUACAUGAGGAUCACCCAUGUUCUUCAAUGUAUAUAUGUAGAAGGCAAAAGAG [Mat - Exclusion 5 - JL Mod - D22] (Eterna round: R97, puzzle: Exclusion 5) | 0.0265 µM | 0.0144 µM | – | – | – | –
17 | UAUUACUCAGGAUAUAUGAUGUGAAACAUGAGGAUCACCCAUGUAAUAUUAUGGAUGUAAAUAGAAGGGAGAUUUU [Mat - Exclusion 5 - JL mod - D18] (puzzle: Exclusion 5) | – | – | 0.0684 µM | – | 0.0518 µM | 0.0548 µM
18 | AAGAAACAUGAGGAUCACCCAUGUGAGGAUAUGACGAAGAAAAGAAAAGAAAGAAGAUUCAGAAGGCACAAAGG [salish99-ex1_r3_061] (puzzle: Exclusion 1) | – | – | 0.0429 µM | – | 0.0901 µM | 0.0564 µM

Row | Sequence | apparent KD of MS2 coat protein (input ligand: FMN 200 uM) | apparent KD of MS2 coat protein (input ligand: none) | apparent KD of MS2 coat protein [1] | apparent KD of MS2 coat protein [2] | apparent KD of MS2 coat protein [3] | apparent KD of MS2 coat protein [4]
19 | AAGAUACAUGAGGAUCACCCAUGUGAGGAUAUGAGCACGCCGGUGACGGUGAUAAGAAUCAGAAGGCACAAUGG [JL-ex1-4.32 salish99 mod] (Eterna round: R97, puzzle: Exclusion 1) | 0.151 µM | 0.327 µM | – | – | – | –
20 | GUCGUGCGGCUUUGCUGUGCGGGUACAUGAGGAUCACCCAUGUAGGAUAUGGUACGCUUUGCGUGCCAGAAGGGCGUGCGUUGG [salish99_ExNG3_r04_008] (Eterna round: R96, puzzle: Exclusion NG 3) | 0.0384 µM | 0.0366 µM | – | 0.0263 µM | – | –
21 | GCCAAGUCAGGAUAUACAUGAGGAUCACCCAUGUAGGACGCUAUUUUGAUCUUGGUAGGUAGAAGGGACAUGGG [Mainaso] (puzzle: Exclusion 3) | – | – | 0.0218 µM | – | – | –
22 | AAACGGCGGAUCGUGGCUUUUUGCUCGUCUUGUGCUUCGACAUGAGGAUCACCCAUGUGGUGGUGAUCCGUUGUAAA [Grok-var2-16 mod JAL] (puzzle: Sensor v3, turn-off variant 2) | – | – | 0.0158 µM | – | 0.0586 µM | 0.0835 µM
23 | CCACCGCCGUCAGGAUAUAACAUGAGGAUCACCCAUGUGUGAAGCAUGAGAGACUCUAACAAGUGUUAGAAGGGACUUAUUGCG [Eternabot solution 36] (Eterna round: R96, puzzle: Exclusion NG 2) | 0.176 µM | 0.0758 µM | – | 0.0632 µM | – | –
24 | CUUUACAUGCUAAGAUCCUACAUGAGGAUCACCCAUGUGGUCCGGUGACGUGAGUCACCGGACUUAGCUCGUCUUGU [salish99_S_TOV1_R5_097] (Eterna round: R97, puzzle: Sensor, turn-off variant 1) | 0.0832 µM | 0.119 µM | – | – | – | –
25 | AGUUGGCGAGGAUAUACAUGAGGAUCACCCAUGUGAGAGGUACUAGUGAGGUCGAUUAGUAGAAGGCGCUGACA [Mat X3R4 m10] (Eterna round: R97, puzzle: Exclusion 3) | 2.1 µM | 0.0483 µM | – | – | – | –
26 | AGGUGUAGAGGAUAUCGAGUCCUUUACAUGAGGAUCACCCAUGUCCUGGGCACCCAGGACCGAGAAGGCUACACCA [Omei Ex5 D32] (Eterna round: R97, puzzle: Exclusion 5) | 0.353 µM | 0.223 µM | – | – | – | –
27 | GAGGGACAUGAGGAUCACCCAUGUGAGGAUAUGUGAGAAGGAUUGGAGAGAAAAGGAAACAGAAGGCGCGGGAG [JR_Exclu1_Sub086] (puzzle: Exclusion 1) | – | – | 0.0509 µM | – | 0.0595 µM | 0.0547 µM
28 | UUGUUGUAUGUAGGAUAUGCGUAUUAUUAUUAUGCAGAAGGACAUGAGGAUCACCCAUGUAUAUUAUUAUUAUAUGUUAUAUAU [Title] (Eterna round: R96, puzzle: Exclusion NG 1) | – | – | – | 0.0179 µM | – | –
29 | AAUAACAGAGGAUAUACUGUUUUAUGUGUUUAUUGUUUUAAACAUGAGGAUCACCCAUGUAGAAGGCUGAAUAA [JMF 17] (puzzle: Exclusion 2) | – | – | 0.0234 µM | – | – | –
30 | UUACCAUGCCGCCUAAUAGCUUUUUGCUCGUCUUAUAUUACAUGAGGAUCACCCAUGUAAAACAUGUGGCGUGACCU [JL ViennaUCT Maridi mod 1] (puzzle: Sensor v3, turn-off variant 2) | – | – | 0.112 µM | – | 0.0798 µM | 0.0873 µM
31 | GAAAAGUGAGGAUAUCGACAUCUCGACAUGAGGAUCACCCAUGUUGUAGGUCGUGUCGAGCGAGAAGGCACAAUAA [EX5 B.9] (Eterna round: R97, puzzle: Exclusion 5) | 0.0482 µM | 0.015 µM | – | – | – | –
32 | UUUAAUUUUUUUUUUUUACAAGCUUUUUGCUCGUCUUAUACAUGAGGAUCACCCAUGUGAAUGGGAGAUAAAUUAUC [JMF 18] (puzzle: Sensor v3, turn-off variant 2) | – | – | 0.508 µM | – | 0.356 µM | 0.456 µM
33 | AGUAGUUACGCAGGAUAUGAGGAUCACCCAUAGAAGGAUAUCGAAAGAGAAGGUCUGAGGAUUACCCAGAAGGGCGUGACUACA [pwkr exNG2 2xF5 2xFMN.5] (Eterna round: R96, puzzle: Exclusion NG 2) | 0.647 µM | 0.136 µM | – | 0.113 µM | – | –
34 | CAGUACUGAGGAUAUACAUGAGGAUCACCCAUGUGUUCCAGCUAGGAAACUAGCGAAAGUAGAAGGCAGUACUG [salish99_ex3_r3_068] (Eterna round: R96, puzzle: Exclusion 3) | 0.562 µM | 0.0246 µM | – | 0.0199 µM | – | –
35 | GUGUUGUCAGGAUAUCUUACAUAACUAUCGUUGUUACCAUUGGAGAAGGGACAUGAGGAUCACCCAUGUUUUCG [tap-tap-tappy50] (Eterna round: R97, puzzle: Exclusion 4) | 0.0239 µM | 0.0246 µM | – | – | – | –
